In article PMC11005723, “Development of Complementary Photo‐arginine/lysine to Promote Discovery of Arg/Lys hPTMs Interactomes” (Advanced Science, 2024):
Non-standard residues stand in square brackets, D forms with d. Primed or numbered codes have the meaning given here. No end group written: not given here. *: point of attachment. R(dz)″ = photo-arginine carrying a diazirine photo-crosslinker; Biotin = O=C1N[C@H]2[C@H](CS[C@H]2CCCCC(=O)*)N1

Target: PHD domain of UHRF1 (UHRF1PHD)
Assay: ITC; 25 °C, MicroCal PEAQ-ITC; protein in the cell titrated with 19 injections of peptide

- Kd: 10.6 µM
Binder: A[R(dz)″]TKQTARKSTGGK(Biotin)A-NH2 [H3K4‐R2dz (probe 1)]
